T1: EsCas13d, nuclease-dead (Eubacterium siraeum, UniProt B0MS50, R295A;H300A;R849A;H854A)
T1 sequence: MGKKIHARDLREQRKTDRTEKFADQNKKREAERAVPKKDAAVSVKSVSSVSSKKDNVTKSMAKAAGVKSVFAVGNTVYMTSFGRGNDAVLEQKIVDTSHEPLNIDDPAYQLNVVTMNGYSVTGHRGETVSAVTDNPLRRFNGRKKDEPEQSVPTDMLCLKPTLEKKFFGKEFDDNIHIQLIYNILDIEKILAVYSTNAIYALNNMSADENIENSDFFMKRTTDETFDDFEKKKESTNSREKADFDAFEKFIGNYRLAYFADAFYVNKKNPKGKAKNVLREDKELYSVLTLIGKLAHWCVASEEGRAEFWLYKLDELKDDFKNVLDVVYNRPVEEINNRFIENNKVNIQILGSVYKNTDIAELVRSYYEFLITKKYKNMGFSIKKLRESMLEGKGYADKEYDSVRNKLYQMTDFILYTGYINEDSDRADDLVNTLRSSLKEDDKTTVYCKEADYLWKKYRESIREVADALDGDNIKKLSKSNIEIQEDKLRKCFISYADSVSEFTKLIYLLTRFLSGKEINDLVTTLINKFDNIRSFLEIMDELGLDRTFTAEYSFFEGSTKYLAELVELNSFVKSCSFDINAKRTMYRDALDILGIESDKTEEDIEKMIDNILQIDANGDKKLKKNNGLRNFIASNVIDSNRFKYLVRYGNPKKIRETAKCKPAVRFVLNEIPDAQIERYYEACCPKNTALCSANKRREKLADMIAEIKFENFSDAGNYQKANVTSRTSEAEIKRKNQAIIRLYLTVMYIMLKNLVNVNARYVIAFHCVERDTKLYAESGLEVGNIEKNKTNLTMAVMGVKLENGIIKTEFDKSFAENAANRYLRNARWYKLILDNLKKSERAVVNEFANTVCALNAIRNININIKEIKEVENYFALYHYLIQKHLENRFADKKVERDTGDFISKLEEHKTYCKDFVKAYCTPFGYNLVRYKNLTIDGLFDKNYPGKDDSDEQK

T2: RfxCas13d (CasRx), nuclease-dead (Ruminococcus flavefaciens, R239A;H244A;R858A;H863A)
T2 chain: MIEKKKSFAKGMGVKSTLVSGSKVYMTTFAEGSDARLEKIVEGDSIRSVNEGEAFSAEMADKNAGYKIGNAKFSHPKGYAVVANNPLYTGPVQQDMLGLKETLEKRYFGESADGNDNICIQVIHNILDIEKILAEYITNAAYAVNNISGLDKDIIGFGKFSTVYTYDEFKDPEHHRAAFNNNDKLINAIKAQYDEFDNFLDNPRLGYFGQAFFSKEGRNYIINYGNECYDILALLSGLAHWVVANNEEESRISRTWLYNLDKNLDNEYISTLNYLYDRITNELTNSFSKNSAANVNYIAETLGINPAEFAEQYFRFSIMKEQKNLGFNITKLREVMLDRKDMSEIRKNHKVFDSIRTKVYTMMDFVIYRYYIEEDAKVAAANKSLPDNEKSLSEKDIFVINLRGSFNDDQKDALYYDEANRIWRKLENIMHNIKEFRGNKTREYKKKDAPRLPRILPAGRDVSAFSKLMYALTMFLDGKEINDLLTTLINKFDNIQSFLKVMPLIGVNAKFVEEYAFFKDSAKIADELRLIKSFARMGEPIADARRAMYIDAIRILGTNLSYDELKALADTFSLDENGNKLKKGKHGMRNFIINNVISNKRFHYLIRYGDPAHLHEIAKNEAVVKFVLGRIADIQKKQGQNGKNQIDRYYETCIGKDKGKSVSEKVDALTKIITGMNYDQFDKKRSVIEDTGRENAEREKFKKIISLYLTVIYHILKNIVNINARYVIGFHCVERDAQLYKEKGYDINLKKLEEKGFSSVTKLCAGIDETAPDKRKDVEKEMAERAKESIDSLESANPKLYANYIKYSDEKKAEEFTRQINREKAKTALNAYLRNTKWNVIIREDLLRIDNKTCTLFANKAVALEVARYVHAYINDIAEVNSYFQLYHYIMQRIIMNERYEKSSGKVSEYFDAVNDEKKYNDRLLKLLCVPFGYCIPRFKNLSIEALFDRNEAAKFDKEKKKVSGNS

B1: target 1 C4A (60-mer) (mixed)
RNA 1: CACCCGUGCAAAAAUGCAGGGGUCUAAAACUGAGCGGAUAACCUCUCUAUGG
RNA 2: CCACAUCUACGAAUUCGUACCAUAGAGAGGUUAUCCGAUCACCGAGAUCGGAAGAGCACA
B2: target 1 3'-GGU (60-mer) (mixed)
RNA 1: B1 RNA 1
RNA 2: B1 RNA 2 with A38C, C42G, C43G, G44U
B3: target 1 3'-GUU (60-mer) (mixed)
RNA 1: B1 RNA 1
RNA 2: B1 RNA 2 with A38C, C42G, C43U, G44U
B4: target 1 C7A (60-mer) (mixed)
RNA 1: B1 RNA 1
RNA 2: B1 RNA 2 with C35A, A38C
B5: target 1 A18G (60-mer) (mixed)
RNA 1: B1 RNA 1
RNA 2: B1 RNA 2 with A24G, A38C
B6: target 1 C22A (60-mer) (mixed)
RNA 1: B1 RNA 1
RNA 2: B1 RNA 2 with C20A, A38C
B7: target 1 G5U (60-mer) (mixed)
RNA 1: B1 RNA 1
RNA 2: B1 RNA 2 with G37U, A38C
B8: target 1 U10G (60-mer) (mixed)
RNA 1: B1 RNA 1
RNA 2: B1 RNA 2 with U32G, A38C
B9: target 1 3'-UAA (60-mer) (mixed)
RNA 1: B1 RNA 1
RNA 2: B1 RNA 2 with A38C, C42U, C43A, G44A
B10: target 1 G15A (60-mer) (mixed)
RNA 1: B1 RNA 1
RNA 2: B1 RNA 2 with G27A, A38C
B11: target 1 5'-UAA (60-mer) (mixed)
RNA 1: B1 RNA 1
RNA 2: B1 RNA 2 with G17U, U18A, A38C
B12: target 1 A20C (60-mer) (mixed)
RNA 1: B1 RNA 1
RNA 2: B1 RNA 2 with A22C, A38C
B13: target 1 3'-UGG (60-mer) (mixed)
RNA 1: B1 RNA 1
RNA 2: B1 RNA 2 with A38C, C42U, C43G
B14: crRNA-1 (MT) target (mixed)
RNA 1: CACCCGUGCAAAAUUGCAGGGGUCUAAAACUUUUGGUUGACCACAUCUUGAA
RNA 2: UUGGAAAACUUCAAGAUGUGGUCAACCAAAAUGCACAAGC
B15: target 1 C2G (60-mer) (mixed)
RNA 1: AACCCCUACCAACUGGUCGGGGUUUGAAACUGAGCGGAUAACCUCUCUAUGG
RNA 2: B1 RNA 2 with A38C, C40G
B16: target 1 G5U (60-mer) (mixed)
RNA 1: B15 RNA 1
RNA 2: B1 RNA 2 with G37U, A38C
B17: target 1 C7A (60-mer) (mixed)
RNA 1: B15 RNA 1
RNA 2: B1 RNA 2 with C35A, A38C
B18: target 1 G15A (60-mer) (mixed)
RNA 1: B15 RNA 1
RNA 2: B1 RNA 2 with G27A, A38C
B19: target 1 U10G (60-mer) (mixed)
RNA 1: B15 RNA 1
RNA 2: B1 RNA 2 with U32G, A38C
B20: target 1 C4A (60-mer) (mixed)
RNA 1: B15 RNA 1
RNA 2: B1 RNA 2
B21: target 1 C22A (60-mer) (mixed)
RNA 1: B15 RNA 1
RNA 2: B1 RNA 2 with C20A, A38C
B22: target 1 A18G (60-mer) (mixed)
RNA 1: B15 RNA 1
RNA 2: B1 RNA 2 with A24G, A38C
B23: target 1 MT (60-mer) (mixed)
RNA 1: B15 RNA 1
RNA 2: B1 RNA 2 with A38C
B24: target 1 A20C (60-mer) (mixed)
RNA 1: B15 RNA 1
RNA 2: B1 RNA 2 with A22C, A38C

Numbering of substitutions follows the chain as printed. Names and notes keep the numbering of the source.

One data set deals with T1, EsCas13d, nuclease-dead. In words: BLI; crRNA (strand 1, pre-loaded); Mg2+; 40 mM Tris-HCl pH 7.5, 150 mM NaCl, 6 mM MgCl2, 1 mM DTT, 0.1% Tween-20, 0.2 mg/ml BSA; temperature not stated. The note with it: tags: His6-TwinStrep-SUMO cleaved; label: 3' biotin on strand 2.
The molecule B1 returned a koff of 0.00035 s⁻¹ and an association rate constant (kon) of 220000 M⁻¹ s⁻¹.
On the same counts, the results for B2 are 0.00084 s⁻¹ and 120000 M⁻¹ s⁻¹.
On the same counts, the results for B3 are 0.0011 s⁻¹ and 250000 M⁻¹ s⁻¹.
B4: the koff turned out to be 0.00045 s⁻¹ and the kon worked out at 220000 M⁻¹ s⁻¹.
Taken in the same sequence, the figures for B5 were 0.00063 s⁻¹ and 73000 M⁻¹ s⁻¹.
Taken in the same sequence, the figures for B6 were 0.00066 s⁻¹ and 190000 M⁻¹ s⁻¹.
On the same counts, the results for B7 are 0.00042 s⁻¹ and 45000 M⁻¹ s⁻¹.
On to B8, for which the koff was determined as 0.00051 s⁻¹ and the kon is 130000 M⁻¹ s⁻¹.
On the same counts, the results for B9 are 0.00061 s⁻¹ and 100000 M⁻¹ s⁻¹.
Taken in the same sequence, the figures for B10 were 0.0006 s⁻¹ and 180000 M⁻¹ s⁻¹.
B11 yielded a koff of 0.00061 s⁻¹ and a kon of 100000 M⁻¹ s⁻¹.
The molecule B12 registered a koff of 0.00063 s⁻¹ and a kon of 100000 M⁻¹ s⁻¹.
In the case of B13, the koff was determined as 0.0006 s⁻¹ and the kon is 70000 M⁻¹ s⁻¹.
On the same counts, the results for B14 are 0.00038 s⁻¹ and 96000 M⁻¹ s⁻¹.

Another data set has as its target T2, RfxCas13d (CasRx), nuclease-dead. The description is as above. The note with it: tags: His6-TwinStrep-SUMO cleaved; label: 3' biotin on strand 2.
As to B15, the Kd was ~0.109 nM.
Turning to B16, the Kd is ~1.12 nM.
The same measure, in the same setting: as for B17, the figure is ~0.175 nM.
Still for that read-out and setting: as for B18, the figure is ~0.119 nM.
Take B19: the Kd was ~0.271 nM.
Still for that read-out and setting: as for B20, the figure is ~0.132 nM; as for B21, ~0.291 nM.
B22: the equilibrium dissociation constant (Kd) is ~0.886 nM.
Still for that read-out and setting: as for B23, the figure is ~0.104 nM.
The same measure, in the same setting: the same measure for B24: ~0.556 nM.

For a further data set, the target named is T1, EsCas13d, nuclease-dead. Described as above. The note with it: tags: His6-TwinStrep-SUMO cleaved; label: 3' biotin on strand 2. This is another data set of the same source.
B1 had a Kd of 1.6 nM.
Same read-out and setting: the same measure for B2: 7.1 nM; for B3: 4.4 nM; for B4: 2.1 nM.
On the same count and under the same terms, as for B5, the figure is 8.7 nM; as for B6, 3.6 nM; as for B7, 9.3 nM.
Still for that read-out and setting: the same measure for B8: 3.8 nM.
Consider B9, for which the Kd turned out to be 6 nM.
On the same count and under the same terms, as for B10, the figure is 3.4 nM.
Same read-out and setting: as for B11, the figure is 6 nM; as for B12, 6.3 nM; as for B13, 8.6 nM.
For B14, binding was characterised by a dissociation constant (Kd) of 4 nM.
